Measurements: patent US20110104112A1 (University of California, published 2011)

Biological target: T1, IFNAR on 38C13 cells (murine, UniProt P33896 27-590; O35664 22-513)
T1 sequence (looked up) 1: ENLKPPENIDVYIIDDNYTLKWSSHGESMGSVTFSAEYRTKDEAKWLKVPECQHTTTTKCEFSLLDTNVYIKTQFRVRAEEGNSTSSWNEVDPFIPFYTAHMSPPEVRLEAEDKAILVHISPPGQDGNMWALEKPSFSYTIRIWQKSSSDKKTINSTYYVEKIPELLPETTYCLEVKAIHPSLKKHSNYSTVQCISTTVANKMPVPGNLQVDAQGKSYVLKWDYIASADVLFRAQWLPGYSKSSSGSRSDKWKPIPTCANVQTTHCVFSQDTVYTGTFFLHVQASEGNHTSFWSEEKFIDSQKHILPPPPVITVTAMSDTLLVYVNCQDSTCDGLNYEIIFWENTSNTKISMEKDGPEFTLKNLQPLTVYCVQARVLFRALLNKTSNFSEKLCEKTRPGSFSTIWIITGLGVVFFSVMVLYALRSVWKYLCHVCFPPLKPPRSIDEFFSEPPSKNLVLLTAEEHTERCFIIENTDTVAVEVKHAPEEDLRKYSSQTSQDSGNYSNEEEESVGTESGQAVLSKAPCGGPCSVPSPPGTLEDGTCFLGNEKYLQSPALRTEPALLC
T1 sequence (looked up) 2: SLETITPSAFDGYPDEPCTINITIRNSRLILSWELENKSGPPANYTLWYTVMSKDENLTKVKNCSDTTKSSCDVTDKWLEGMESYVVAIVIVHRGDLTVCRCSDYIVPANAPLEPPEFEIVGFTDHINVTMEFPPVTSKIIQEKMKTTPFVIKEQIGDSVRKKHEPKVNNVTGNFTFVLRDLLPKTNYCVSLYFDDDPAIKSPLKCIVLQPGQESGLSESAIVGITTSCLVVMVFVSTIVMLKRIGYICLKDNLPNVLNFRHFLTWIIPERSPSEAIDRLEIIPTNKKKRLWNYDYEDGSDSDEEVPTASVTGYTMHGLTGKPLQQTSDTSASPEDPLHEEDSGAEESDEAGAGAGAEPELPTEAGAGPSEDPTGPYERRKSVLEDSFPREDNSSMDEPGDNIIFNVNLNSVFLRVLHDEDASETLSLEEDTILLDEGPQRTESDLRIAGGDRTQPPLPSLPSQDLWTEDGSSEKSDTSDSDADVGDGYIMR
Experiment: cell-based or functional assay

B1: anti-CD20/IgG3-mu-IFN-α (other)
heavy: QVQLQQPGAELVKPGASVKMSCKASGYTFTSYNMHWVKQTPGRGLEWIGAIYPGNGDTSYNQKFKGKATLTADKSSSTAYMQLSSLTSEDSAVYYCARSTYYGGDWYFNVWGAGTTVTVSAASTKGPSVFPLAPCSRSTSGGTAALGCLVKDYFPEPVTVSWNSGALTSGVHTFPAVLQSSGLYSLSSVVTVPSSSLGTQTYTCNVNHKPSNTKVDKRVELKTPLGDTTHTCPRCPEPKSCDTPPPCPRCPEPKSCDTPPPCPRCPEPKSCDTPPPCPRCPAPELLGGPSVFLFPPKPKDTLMISRTPEVTCVVVDVSHEDPEVQFKWYVDGVEVHNAKTKLREEQYNSTFRVVSVLTVLHQDWLNGKEYKCKVSNKALPAPIEKTISKAKGQPREPQVYTLPPSREEMTKNQVSLTCLVKGFYPSDIAVEWESNGQPENNYNTTPPMLDSDGSFFLYSKLTVDKSRWQQGNIFSCSVMHEALHNHYTQKSLSLSPGKSGGGGSCDLPQTHNLRNKRALTLLVQMRRLSPLSCLKDRKDFGFPQEKVDAQQIKKAQAIPVLSELTQQILNIFTSKDSSAAWNATLLDSFCNDLHQQLNDLQGCLMQQVGVQEFPLTQEDALLAVRKYFHRITVYLREKKHSPCAWEVVRAEVWRALSSSANVLGRLREEK
light: QIVLSQSPAILSASPGEKVTMTCRASSSVSYIHWFQQKPGSSPKPWIYATSNLASGVPVRFSGSGSGTSYSLTISRVEAEDAATYYCQQWTSNPPTFGGGTKLEIK
With B1 the “IC50 (pM) 38C13-CD20, cell viability, MTS assay” value was 76.4 pM and the “IC50 (pM) 38C13-CD20-IFNR Knock Down, cell viability, MTS assay” value was 848 pM.
